# From PMC4288179, “Synergic interplay of the La motif, RRM1 and the interdomain linker of LARP6 in the recognition of collagen mRNA expands the RNA binding repertoire of the La module”
# Changes are numbered by the printed parent chain.
# T1: HsLARP6(74-313) (Homo sapiens, UniProt Q9BRS8 74-313)
# T1 sequence: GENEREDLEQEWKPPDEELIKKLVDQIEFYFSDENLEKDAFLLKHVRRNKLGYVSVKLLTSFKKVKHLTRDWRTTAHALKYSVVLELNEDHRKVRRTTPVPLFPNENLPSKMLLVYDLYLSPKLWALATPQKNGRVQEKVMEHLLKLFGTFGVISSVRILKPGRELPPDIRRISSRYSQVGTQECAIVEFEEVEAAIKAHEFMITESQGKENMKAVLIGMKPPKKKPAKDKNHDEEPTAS
# T2: HsLARP6(70-295) (Homo sapiens, UniProt Q9BRS8 70-295)
# T2 sequence: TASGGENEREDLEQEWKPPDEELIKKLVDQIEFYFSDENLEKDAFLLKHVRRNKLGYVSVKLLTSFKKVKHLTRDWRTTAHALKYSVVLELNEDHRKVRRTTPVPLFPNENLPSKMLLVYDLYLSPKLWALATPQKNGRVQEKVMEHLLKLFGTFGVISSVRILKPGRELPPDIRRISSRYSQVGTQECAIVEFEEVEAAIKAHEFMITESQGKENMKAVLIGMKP
# T3: HsLARP6(70-300) Q99A (Homo sapiens, UniProt Q9BRS8 70-300, Q99A)
# T3 sequence: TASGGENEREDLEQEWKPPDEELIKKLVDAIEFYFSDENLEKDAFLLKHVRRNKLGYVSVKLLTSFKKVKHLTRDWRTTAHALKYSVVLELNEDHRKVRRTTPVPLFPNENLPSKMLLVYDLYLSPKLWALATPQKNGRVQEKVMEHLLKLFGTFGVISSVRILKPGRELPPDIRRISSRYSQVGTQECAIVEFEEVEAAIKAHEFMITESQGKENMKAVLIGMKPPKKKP
# T4: HsLARP6(70-300) R249A (Homo sapiens, UniProt Q9BRS8 70-300, R249A)
# T4 sequence: T3 sequence with A30Q, R180A
# T5: HsLARP6 La module (70-300) (Homo sapiens, UniProt Q9BRS8 70-300)
# T5 sequence: T3 sequence with A30Q
# Legend:
# HsLARP6(74-313) = biological target: T1, HsLARP6(74-313); experiment: ITC; ITC: 20 mM Tris pH 7.25, 100 mM KCl, 5 mM MgCl2, 1 mM DTT, 298 K; protein titrated into RNA; conditions: protein: recombinant; tags: N-terminal His6 (TEV-cleavable); stem-loop with internal bulge
# HsLARP6(70-295) = biological target: T2, HsLARP6(70-295); experiment: as above; conditions: protein: recombinant; tags: N-terminal His6 (TEV-cleavable); stem-loop with internal bulge
# HsLARP6(70-300) Q99A = biological target: T3, HsLARP6(70-300) Q99A; experiment: as above; conditions: protein: recombinant; tags: N-terminal His6 (TEV-cleavable); stem-loop with internal bulge
# HsLARP6(70-300) R249A = biological target: T4, HsLARP6(70-300) R249A; experiment: as above; conditions: protein: recombinant; tags: N-terminal His6 (TEV-cleavable); stem-loop with internal bulge
# [1] = biological target: T5, HsLARP6 La module (70-300); experiment: ITC; 200 mM KCl; ITC: 20 mM Tris pH 7.25, 100 mM KCl, 5 mM MgCl2, 1 mM DTT, 298 K; protein titrated into RNA; conditions: protein: recombinant; tags: N-terminal His6, TEV-cleaved for initial ITC; stem-loop with internal bulge
binder,measurement,setting,value
CCACAAAGAGUCUACAUGUCUAGGGUCUAGACAUGUUCAGCUUUGUGG (structured_RNA) [48 nt RNA (collagen alpha1(I) 5' UTR SL)],Kd,HsLARP6(74-313),26 nM
same,Kd,HsLARP6(70-295),77 nM
same,binding result,HsLARP6(70-300) Q99A,no binding
same,Kd,HsLARP6(70-300) R249A,26 nM
same,Kd,[1],50 nM
